In article doi:10.1101/827477:

Target: BG505_mut123_N241 SOSIP (HIV-1 (subtype A, BG505)) (UniProt Q2N0S6)
Assay: negative-stain EM

B1: 13B Fab (Fab, V domains shown)
VH: LEESGGGLVQPEGSLTLTCKASGFDFSDYHVQWVRQSPGKGLEFIGGIAYTGNIYYASWAKGRFTISKTSSTTVTLQMTTLTAADTATYFCARAYGYASAPYAQYFNLWGPGTLVTVSS
VL: DIVMTQTPASVSEPVGGTVTINCQASQSRGNNYLSWYQQKPGQSPSLLIYRTSTLASGVPSRFKGSGSGTQFTLTISDLECADAATYYCLYGYYSSRNPDFAFGGGTEVVVK
B1 was tested, and the percent of particles with no Fab bound was 57% and the percent of particles with one Fab bound was 43%.
